Results published in PMC2897767, “Two Distinct Mechanisms for Actin Capping Protein Regulation—Steric and Allosteric Inhibition” (PLoS Biology, 2010).
Where two headings read alike, the source gives them in different places.

Tests used:
CP [1] = details: estimated, cited from earlier work
From the text: How do CARMIL proteins inhibit the capping activity of CP in an allosteric manner? […] We propose that CARMIL proteins inhibit CP in a similar manner (Figure 13C); CARMIL proteins limit the conformational distribution of CP to ...

CP [2] = assay: SPR binding of CP to immobilized GST-CD2AP / GST-CARMIL fragments; design: species or system chicken; details: 20°C; for kon / koff: SPR (Biacore), CP perfused, 1:1 binding model; for kon: GST-fusion immobilized via anti-GST antibody on CM5 chip, 50 mM KCl, 1 mM MgCl2, 0.005% Tween-20, 10 mM imidazole pH 7.0; for koff: GST-fusion immobilized
Procedure: (§1) Expression vectors for chicken CPfull and CPΔβC were constructed in pETDuet-1 by PCR, using pET-3d/CP [38] as the template. CP was expressed in E. coli Rosetta2 (DE3) and was purified as described. V-1 (human), expressed in E. coli Rosetta2 (DE3) as a GST-fusion protein, was affinity-purified and the tag was removed. Synthetic peptides derived from CARMIL proteins were obtained from Invitrogen. For crystallization, CP was incubated with a 1.2–2.0-fold molar excess of V-1 or CARMIL peptides at 4°C for 2 h, followed by gel filtration to purify the complexes. Expression vectors for the GST-CA constructs were prepared from the mouse cDNA clone as previously described. Vectors for GST-CD fragments were constructed by PCR cloning using a human whole brain cDNA library (Clontech) as the template. Amplified DNA fragments were cloned into pGEX-6P-1. GST-fusion proteins were expressed in E. coli Rosetta2 (DE3) cells and affinity-purified using glutathione sepharose resin. Mutations were introduced using a Quikchange mutagenesis kit (Stratagene). Actin was prepared from rabbit skeletal muscle, as previously described, and was further purified by gel filtration chromatography. Pyrene labeled-actin was prepared as described. Spectrin-actin seeds were prepared from rabbit red blood cells, as previously described.
(§2) The binding affinities of CP for V-1 or CARMIL proteins were evaluated by surface plasmon resonance measurements with Biacore 3000 or Biacore 2000 instruments (GE Healthcare). GST-fusion proteins (GST-V-1, GST-CA, or GST-CD) were immobilized onto a CM5 sensor chip up to 200 RU (response units; 200 pg/mm^2) via anti-GST antibodies. CP at various concentrations in running buffer (50 mM KCl, 1 mM MgCl2, 0.005% Tween-20, 10 mM imidazole, pH 7.0) was perfused over the chip at 20°C, at a flow rate of 20 µl/min. Response curves were obtained by subtracting the background signal generated simultaneously on a control flow cell with immobilized GST. To measure the effect of the CARMIL peptides on the facilitation of CP/V-1 dissociation (in Figure 11C and 11D), we used the “co-inject” mode for successive injections of the peptides followed by CP. Kinetic parameters were determined by fitting the sensorgrams to a simple 1∶1 binding model, using the Bia-evaluation software (GE Healthcare). KD values were obtained from the kinetic rate constants. […] KD values were evaluated by plotting these values against the concentrations of CP.

CP (β) D44N = assay: SPR binding of mutant CP to immobilized GST-CD56 / GST-CA92; design: species or system chicken; details: analyte CP (β) D44N, 20°C, pH 7.0
Procedure: as §1, §2

CP (β) D63N = assay: as above; design: species or system chicken; details: analyte CP (β) D63N, 20°C, pH 7.0
Procedure: as §1, §2

CP (β) D67N = assay: as above; design: species or system chicken; details: analyte CP (β) D67N, 20°C, pH 7.0
Procedure: as §1, §2

CP (β) Y64F = assay: as above; design: species or system chicken; details: analyte CP (β) Y64F, 20°C, pH 7.0
Procedure: as §1, §2

CPfull (wild type CP) = assay: Actin polymerization assay (barbed end elongation from spectrin-actin seeds): inhibition of CP capping; type: biochemical, chicken; details: actin 1.2 µM (5% pyrene-labeled), 7.2 nM CPfull, 25°C (Figure 9F)
Procedure: (A) Superposition of the C-termini of the peptides. CD Phe505 and CK Arg169 are shown as stick models. The conserved proline at the C-terminus of the motifs is shown as balls. (B) CD2AP constructs used for biochemical assays. (C) CARMIL constructs used for biochemical assays. […] Actin (1.2 µM, 5% pyrene-labeled) was polymerized from spectrin-actin seeds in the presence of 3.6 nM CPfull (D), 10 nM CPβΔC (E), or 7.2 nM CPfull (F) with various concentrations of CARMIL peptides or GST-CA constructs.
The barbed end elongation assay from spectrin-actin seeds was performed essentially as previously described. Briefly, G-actin was stored in G-buffer (0.2 mM CaCl2, 0.2 mM ATP, 0.5 mM DTT and 10 mM imidazole, pH 7.0). At 90 s prior to polymerization, the Ca^2+ was replaced with Mg^2+, by the addition of 1/10 volume of 10 mM EGTA and 1 mM MgCl2 to G-actin. […] Actin polymerization was measured by monitoring the pyrene-actin fluorescence (excitation 370 nm; emission 410 nm) at 25°C.
(0.16 MB TIF) Click here for additional data file.

CP [3] = details: ref Fujiwara, et al.; cited from earlier work
From the text: We tested the importance of the C-terminal flanking regions of the CP-binding motif using a binding assay (Table 2; the constructs used for the measurement are shown in Figure 9B). […] In the second CP binding site in the CP/CBR115 complex, human CARMIL Val1034 (corresponding to mouse CA1038), which is missing in GST-76, forms multiple interactions with CP α-subunit residues. Thus, the absence of this key valine in GST-CA76 results in the lower CP binding affinity compared with the full active CARMIL fragments.

B1: CARMIL: multi-domain protein (∼150 kDa) that binds CP and uncaps filaments (protein, UniProt Q6EDY6 1-1374, looked up)
F-actin-uncapping protein …: MTDESSDVPRELMESIKDVIGRKIKISVKKKVKLEVKGDRVENKVLVLTSCRAFLLSARIPSKLELTFSYLEIHGVICHKPAQMVVETEKCNMSMKMVSPEDVSEVLAHIGTCLRRIFPGLSPLRIMKKVSMEPSERLASLQALWDSQTLAEPGPCGGFSQMYACVCDWLGFSYKEEVQWDVDTIYLTQDTRELNLQDFSHLEHRDLIPIIAALEYNQWFTKLSSKDLKLSTDVCEQILRVVSRSNRLEELVLENAGLRIDFAQKLAGALAHNPNSGLHTINLAGNSLEDRGVSSLSIQFAKLPKGLKHLNLSKTSLSPKGVNSLCQSLSANPLTASTLTHLDLSGNALRGDDLSHMYNFLAQPNTIVHLDLSNTECSLEMVCSALLRGCLQCLAVLNLSRSVFSHRKGKEVPPSFKQFFSSSLALIQINLSGTKLSPEPLKALLLGLACNHSLKGVSLDLSNCELGHCLRSGGAQVLEGCIAEIHNITSLDISDNGLESDLSTLIVWLSKNRSIQHLALGKNFNNMKSKNLTPVLDNLVQMIQDEDSPLQSLSLADSKLKAEVTIIINALGSNTSLTKVDISGNGMGDMGAKMLAKALQINTKLRTVIWDKNNITAQGFQDIAVAMEKNYTLRFMPIPMYDAAQALKTNPEKTEEALQKIENYLLRNHETRKYLQEQAYRLQQGIVTSTTQQMIDRICVKVQDHLNSLRACGGDAIQEDLKAAERLMRDAKNSKTLLPNLYHVGGASWAGASGLSSSPIQETLESMAGEVTRVVDEQLKDLLESMVDAAETLCPNVMRKAHIRQDLIHASTEKISIPRTFVKNVLLEQSGIDILNKISEVKLTVASFLSDRIVDEILDSLSSSHRKLANHFSRLNKSLPQREDLEVELVEEKPVKRAILTVEDLTEVERLEDLDTCMMTPKSKRKSIHSRMLRPVSRAFEMEFDLDKALEEVPIHIEDPPFPSVRQEKRSSGLISELPSEEGRRLEHFTKLRPKRNKKQQPTQAAVCTISILPQDGEQNGLMGRVDEGVDEFFTKKVTKMDCKRSSSRSSDAHELGEGDEKKKRDSRRSGFLNLIKSRSRSERPPTVLMTEELSSPKGAMRSPPVDTTRKEIKAAEHNGAPDRTEEIKTPEPLEEGPAEEAGRAERSDSRGSPQGGRRYVQVMGSGLLAEMKAKQERRAACAQKKLGNDVISQDPSSPVSCNTERLEGGATVPKLQPGLPEARFGSGTPEKNAKAEPRVDGGCRSRSSSSMPTSPKPLLQSPKPSPSARPSIPQKPRTASRPEDTPDSPSGPSSPKVALLPPILKKVSSDKERDGQNSSQSSPRSFSQEASRRSWGPAQEYQEQKQRSSGKDGHQGSKCSDSGEEAEKEFIFV
Question: What does the source list for B1?
Answer: affinity for barbed end-bound CP lower than for free CP (CP [1]; ref 23): 10- to 100 fold; affinity for barbed end-bound CP lower than for free CP (CP [1]; ref 29): 200 fold

B2: GST-CA76: GST fusion of mouse CARMIL residues 962–1037 (protein)
chain: FPSVRQEKRSSGLISELPSEEGRRLEHFTKLRPKRNKKQQPTQAAVCTISILPQDGEQNGLMGRVDEGVDEFFTKK
modifications: left off: GST, end not stated, kept
Question: Which results are given for B2?
Answer: kon (CP [2]): 230000 M⁻¹ s⁻¹; koff (CP [2]; pH 7.0): 0.019 s⁻¹

B3: GST-CA92: GST fusion of mouse CARMIL residues 962–1053 (protein)
chain: FPSVRQEKRSSGLISELPSEEGRRLEHFTKLRPKRNKKQQPTQAAVCTISILPQDGEQNGLMGRVDEGVDEFFTKKVTKMDCKRSSSRSSDA
modifications: left off: GST, end not stated, kept
Question: Which results are given for B3?
Answer: kon (CP [2]): 1.6e+06 M⁻¹ s⁻¹; koff (CP [2]; pH 7.0): 0.0052 s⁻¹; koff (CP (β) D44N): >0.1 s⁻¹; koff (CP (β) D63N): >0.1 s⁻¹; koff (CP (β) D67N): >0.1 s⁻¹; Kon (CP (β) Y64F): 460000 M⁻¹ s⁻¹; koff (CP (β) Y64F): 0.0046 s⁻¹; CP inhibitory activity of GST-CARMIL constructs (CPfull (wild type CP)): strongest CP inhibitory effect

B4: mCAH3: mCAH3 fragment, mouse CARMIL residues 965-1038 (protein, UniProt Q6EDY6 965-1038, looked up, fragment)
chain: VRQEKRSSGLISELPSEEGRRLEHFTKLRPKRNKKQQPTQAAVCTISILPQDGEQNGLMGRVDEGVDEFFTKKV
Question: With B4 as the molecule, how does the Kd (CP [3]) read?
Answer: ~1 nM

B5: GST-CA63: GST fusion of mouse CARMIL residues 962–1024 (protein)
chain: FPSVRQEKRSSGLISELPSEEGRRLEHFTKLRPKRNKKQQPTQAAVCTISILPQDGEQNGLMG
modifications: left off: GST, end not stated, kept
Question: Which koff (CP [2]; pH 7.0) does the source give for B5 here?
Answer: >0.1 s⁻¹

Question: And the “KD (in words)” value (CP [2]; SPR, pH 7.0)?
Answer: micromolar range
